Results on one molecule are retold here after PMC8928218 (Frontiers in Cell and Developmental Biology, 2022).

This test addresses Pyrene-labeled G-actin (rabbit, UniProt P68135 1-377, pyrene label). As to the kind of experiment: cell-based or functional assay.

B1: human hexameric SEPT2/6/7 complex (complex)
chain 1: MSKQQPTQFINPETPGYVGFANLPNQVHRKSVKKGFEFTLMVVGESGLGKSTLINSLFLTDLYPERVIPGAAEKIERTVQIEASTVEIEERGVKLRLTVVDTPGYGDAINCRDCFKTIISYIDEQFERYLHDESGLNRRHIIDNRVHCCFYFISPFGHGLKPLDVAFMKAIHNKVNIVPVIAKADTLTLKERERLKKRILDEIEEHNIKIYHLPDAESDEDEDFKEQTRLLKASIPFSVVGSNQLIEAKGKKVRGRLYPWGVVEVENPEHNDFLKLRTMLITHMQDLQEVTQDLHYENFRSERLKRGGRKVENEDMNKDQILLEKEAELRRMQEMIARMQAQMQMQMQGGDGDGGALGHHV
chain 2: MAATDIARQVGEGCRTVPLAGHVGFDSLPDQLVNKSVSQGFCFNILCVGETGLGKSTLMDTLFNTKFEGEPATHTQPGVQLQSNTYDLQESNVRLKLTIVSTVGFGDQINKEDSYKPIVEFIDAQFEAYLQEELKIRRVLHTYHDSRIHVCLYFIAPTGHSLKSLDLVTMKKLDSKVNIIPIIAKADAISKSELTKFKIKITSELVSNGVQIYQFPTDDESVAEINGTMNAHLPFAVIGSTEELKIGNKMMRARQYPWGTVQVENEAHCDFVKLREMLIRVNMEDLREQTHTRHYELYRRCKLEEMGFKDTDPDSKPFSLQETYEAKRNEFLGELQKKEEEMRQMFVQRVKEKEAELKEAEKELHEKFDRLKKLHQDEKKKLEDKKKSLDDEVNAFKQRKTAAELLQSQGSQAGGSQTLKRDKEKKNNPWLCTE
chain 3: MSVSARSAAAEERSVNSSTMVAQQKNLEGYVGFANLPNQVYRKSVKRGFEFTLMVVGESGLGKSTLINSLFLTDLYSPEYPGPSHRIKKTVQVEQSKVLIKEGGVQLLLTIVDTPGFGDAVDNSNCWQPVIDYIDSKFEDYLNAESRVNRRQMPDNRVQCCLYFIAPSGHGLKPLDIEFMKRLHEKVNIIPLIAKADTLTPEECQQFKKQIMKEIQEHKIKIYEFPETDDEEENKLVKKIKDRLPLAVVGSNTIIEVNGKRVRGRQYPWGVAEVENGEHCDFTILRNMLIRTHMQDLKDVTNNVHYENYRSRKLAAVTYNGVDNNKNKGQLTKSPLAQMEEERREHVAKMKKMEMEMEQVFEMKVKEKVQKLKDSEAELQRRHEQMKKNLEAQHKELEEKRRQFEDEKANWEAQQRILEQQNSSRTLEKNKKKGKIF
Regarding B1, the “fold decrease in actin monomer turnover in the elongation phase (tau, the inverse value of the rate constant) in the pyrene actin polymerization assay, 2 µM actin, relative to actin alone” value is around 1.4 fold.
